Where no end group is shown, it is not given here.
Tests used:
[1] = biological target: T1, SARS-CoV-2 RBD (High Five insect cells, 6x His-tag) (SARS-CoV-2, UniProt P0DTC2); assay: SPR; settings: both partners purified
T1 construct: source: High Five insect cells, purified (HisExcel, SEC)

[2] = biological target: T2, SARS-CoV-2 S1S2-His (monomeric S1S2 spike protein) (SARS-CoV-2, UniProt P0DTC2 14-1213); assay: SPR; settings: both partners purified
T2 construct: source: High Five insect cells, purified (HisExcel, SEC)

B1: CVRBDL-3 (peptide)
peptide: HDFWWEYDKKNDTWTRRRR-NH2
notes: also called CVRDBL-3; CVRBD-3; source: synthetic peptide; bought: CASLO
stoichiometry N [1]: 1 | stoichiometry N [2]: 1
